Experimental data as given in PMC4108065, “Inflammation and pancreatic cancer: molecular and functional interactions between S100A8, S100A9, NT-S100A8 and TGFβ1” (Cell Communication and Signaling : CCS, 2014).

How the values were obtained:
[1] = test system: Smad4 silenced MiaPaCa2 IκBα and S6RP phosphorylation; test: Signaling western blot in Smad4 silenced MiaPaCa2; format: cell-based, human; details: Smad4-siRNA MiaPaCa2 vs MiaPaCa2, 10 minutes, 0.02 ng/ml TGFβ1, 10 nM S100A8, 50 nM NT-S100A8; for effect of silenced Smad4 on S6RP phosphorylation: western blot; for effect of Smad4 silencing on inhibition of NF-κB: IκBα Ser32 western blot
Experimental: The pancreatic cancer cell lines used were: Panc1 and Suit2, donated by Prof Aldo Scarpa (University of Verona, Italy); BxPC3, from Dr Andrea Galli (University of Florence, Italy); MiaPaCa2, Capan1 and the human embryonic kidney Hek293 cell lines, supplied by the American Type Culture Collection (Manassas, VA, USA). BxPC3, Capan1 and Panc1 were cultured in RPMI (Gibco/BRL, Gaithhersburg, MD, USA) supplemented with 10% (BxPC3 and Panc1) and 20% (Capan1) fetal calf serum (FCS) (Gibco/BRL), 1% L-glutamine (Gibco/BRL) and 0.1% gentamycin (Gibco/BRL). MiaPaCa2 and Hek293 were cultured in DMEM (Gibco/BRL) supplemented with 10% FCS, 2% L-glutamine and 0.1% Gentamycin. BxPC3 cells were transfected with the expression vector pBK-cytomegalovirus (CMV)-SMAD4/DPC4, as previously described. One SMAD4/DPC4-expressing clone (BxPC3-SMAD4+) was used for the experiments. Smad4 silencing of MiaPaCa2 cells was performed as previously described.
Five million cells were seeded in Petri dishes (ø 10 cm) and cultured for 24 hours in their respective complete media prior to starting the experiments. Cells remained non-stimulated (negative control) or were stimulated with 50 mU insulin (positive control) (Insuman Rapid, Sanofi-Aventis, Deutschland, GmbH) for 10 min; in parallel, experimental cells were stimulated with 50 nM NT-S100A8, 0,02 ng/ml TGFβ1 (ProSpec-Tany TechnoGene), 10 nM S100A8 and 10 nM S100A9 alone or combined for 10 min. Following stimulations, Petri dishes were immediately transferred into an ice bath, and the cells were washed twice with cold PBS, re-suspended in 100 μl of cold lysis buffer [20 mM Tris–HCl, pH 7.5, 150 mM NaCl, 1 mM EDTA, 1% Triton-X 100, 50 mM NaF, 10 mM Na4P2O7,1 mM Na3VO4, and 10% protease inhibitor cocktail (Sigma Aldrich SRL, Milano, Italy)]. Lysates were centrifuged for 10 min at 14,000 rpm at 4°C and, in the supernatants, total proteins were measured using the Bio-Rad protein assay (Bio-Rad Laboratories, Milano, Italy). Each experiment was performed at least in triplicate.
For each sample, 40 μg proteins were electrophoresed through 4–12% NuPAGE®NovexBis-Tris SDS–PAGE Gel or 3-8% NuPAGE®NovexTris-Acetate SDS–PAGE Gel (Invitrogen S.R.L., Life Technologies, Monza, Italy) and electrophoretically transferred to Nitrocellulose Membrane (iBlot® Transfer Stack, Invitrogen S.R.L.) by means of the iBlotTMDry Blotting System (Invitrogen S.R.L.). Following incubation for 1 hour in a blocking buffer [5% low fat powder milk re-suspended in PBS-T (PBS with 0.1% Tween-20)], membranes were incubated overnight at 4°C with the primary antibodies [antiphospho IkB-α (Ser^32) (Santa Cruz Biotechnology, Inc., Santa Cruz, CA, USA); anti-phospho-Akt (Ser^473), anti-phospho-Akt (Thr^308), anti-Akt and anti-phospho-S6 Ribosomal Protein (Ser^235/236), anti-cleaved Caspase-3, anti-phospho-Stat3 Tyr^705, anti-β-actin, anti-phospho mTOR (Ser^2448, Ser^2481) (Cell Signaling Technology, Danvers, MA, USA); anti-RAGE (R&D Systems, Minneapolis, MN, USA) ] diluted 1:5000 (β-actin), 1:2000 (mTOR, cleaved Caspase-3, Stat3) or 1:3000 (all the others) in the blocking buffer. The blots, washed three times in PBS-T for 15 min, were incubated with […] anti-rabbit (Cell Signaling Technology) or anti-goat (Sigma Aldrich) secondary antibodies and then washed three times in PBS-T for 15 min and developed with the ECL Advance Western Blot Detection Kit (GE Healthcare Technologies, Milan, Italy).

TGFβ1 = biological target: T1, TGFβ1 (Homo sapiens, UniProt P01137); test: Molecular interactions by MALDI-TOF/MS and co-immunoprecipitation; format: binding; details: for co-immunoprecipitation with TGFβ1: 1.6 μM equimolar with CaCl2, 37°C overnight, IP anti-S100A8 or anti-S100A9, WB TGFβ1; for homo-oligomer formation: 11.3 μM with Ca2+; for homo-oligomer formation / hetero-dimer formation with TGFβ1: overnight, MALDI-TOF/MS; for hetero-dimer formation with TGFβ1: 1:1 molar ratio (11.3 μM) with Ca2+
T1 construct: purchased ProSpec-Tany TechnoGene
T1 sequence (P01137 279-390 limits assumed): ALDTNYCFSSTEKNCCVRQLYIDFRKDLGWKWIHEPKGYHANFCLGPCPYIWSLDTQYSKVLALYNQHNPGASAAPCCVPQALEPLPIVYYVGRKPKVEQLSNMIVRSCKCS
Experimental: Co-immunoprecipitation experiments were performed using protein G-Sepharose (GE Healthcare Technologies). TGFβ1 (1.6 μM) was incubated in equimolar concentrations with S100A8 or S100A9 at 37°C overnight in the presence of equimolar CaCl2. The mixtures were then incubated for 2 h with anti-S100A8 polyclonal or anti-S100A9 monoclonal antibodies (Santa Cruz Biotechnology) preadsorbed to protein G. Immunoprecipitates, washed three times in 10 mM Tris HCl containing 40 mM NaCl, pH 7.5, were boiled in an SDS-PAGE sample buffer before electrophoresis on 4–12% NuPAGE®NovexBis-Tris SDS–PAGE gels. After protein transfer, nitrocellulose membranes were blotted with anti-TGFβ1 antibody (Cell Signaling Technology).
S100A8, S100A9 and TGFβ1 and calcium ions (CaCl2) were mixed at an equimolar concentration (11.3 μM) in an aqueous solution. Each mixture was incubated overnight at 37°C prior to MALDI-TOF/MS analysis. S100A8, S100A9 and TGFβ1 mixtures were diluted 1/10 in 50 μL of 0.1% TFA aqueous solution, after which 5 microliters of each dilution were added to 5 μl of Sinapinic acid (SA); 1 μl of the resulting mixture was deposited in duplicate on the steel sample holder and allowed to dry. External mass calibration (Protein Calibration Standard II, BrukerDaltonics) was based on monoisotopic values of [M + H] + of Trypsinogen, Protein A, Albumin-Bovine (BSA), at m/z 23982, 44613, 66500, respectively. MALDI-TOF/MS measurements were performed using an Ultraflex II MALDI-TOF instrument (BrukerDaltonics), operating in linear positive ion mode. Ions were formed using a pulsed UV laser (λ = 337 nm) beam. The instrumental conditions were: IS1 = 25 kV; IS2 = 23.35 kV; delay time = 70 nsec. All chemicals and solvents were purchased from Sigma-Aldrich (Sigma Aldrich). One spectrum was collected for each sample, an average of 1,000 laser shots being obtained from the respective two replicate spots.

Row | Substance | effect of silenced Smad4 on S6RP phosphorylation [1] | effect of Smad4 silencing on inhibition of NF-κB [1] | co-immunoprecipitation with TGFβ1 (TGFβ1) | homo-oligomer formation (TGFβ1) | hetero-dimer formation with TGFβ1 (TGFβ1)
1 | NT-S100A8: 14 N-terminal aminoacid peptide of S100A8, isolated from PDAC tissues (MLTELEKALNSIID; UniProt P05109 1-14, looked up, fragment) | markedly reduced S6RP phosphorylation |  |  |  | 
2 | S100A8: inflammatory calcium binding protein S100A8 (ProSpec-Tany TechnoGene) | markedly reduced S6RP phosphorylation | reduced the inhibition of NF-κB | TGFβ1 was detected | formed homo-dimers | formed hetero-dimers not only between themselves, but also with TGFβ1
3 | S100A9: inflammatory calcium binding protein S100A9, S100A8 binding partner |  |  | TGFβ1 was detected | formed homo-dimers and homo-trimers | formed hetero-dimers not only between themselves, but also with TGFβ1
4 | TGFβ1: transforming growth factor beta 1 (ProSpec-Tany TechnoGene) | markedly reduced S6RP phosphorylation | reduced the inhibition of NF-κB |  | formed homo-dimers and homo-trimers | 
